Source: the FLAb antibody collection (doi:10.7554/elife.23156)

B1: scFv; the commonest letter at each place (parent)
chain 1: EVKLDETGGGLVQPGRPMKLSCVASGFTFSDYWMNWVRQSPEKGLEWVAQIRNKPYNYETYYSDSVKGRFTISRDDSKSSVYLQMNNLRVEDMGIYYCTGSYYGMDYWGQGTSVTVS
chain 2: DVVMTQTPLSLPVSLGDQASISCRSSQSLVHSNGNTYLRWYLQKPGQSPKVLIYKVSNRFSGVPDRFSGSGSGTDFTLKISRVEAEDLGVYFCSQSTHVPWTFGGGTKLEIK

What was measured:
fluorescein = variants of: B1; assay: Kd (Tite-Seq); conditions: with fluorescein; format: scFv 4-4-20, heavy + light
[1] = variants of: B1; assay: yeast surface expression (ratio to wild type); higher = more expressed; conditions: format: scFv 4-4-20, heavy + light

Variant | Kd (fluorescein) [µM] | yeast surface expression [1]
chain 1 EVKLDETGGGLVQPGRPMKLSCVASGFTFSDYWMNWVRQSPEKGLEWVAQIRNKPYNYETYYSDSVKGRFTISRDDSKSSVYLQMNNLRVEDMGIYYCTALYYGMDYWGQGTSVTVS chain 2 DVVMTQTPLSLPVSLGDQASISCRSSQSLVHSNGNTYLRWYLQKPGQSPKVLIYKVSNRFSGVPDRFSGSGSGTDFTLKISRVEAEDLGVYFCSQSTHVPWTFGGGTKLEIK [chain 1 G100A S101L] | ≥ 10 | 0.553
chain 1 EVKLDETGGGLVQPGRPMKLSCVASGFTFSDFWFNWVRQSPEKGLEWVAQIRNKPYNYETYYSDSVKGRFTISRDDSKSSVYLQMNNLRVEDMGIYYCTGSYYGMDYWGQGTSVTVS chain 2 DVVMTQTPLSLPVSLGDQASISCRSSQSLVHSNGNTYLRWYLQKPGQSPKVLIYKVSNRFSGVPDRFSGSGSGTDFTLKISRVEAEDLGVYFCSQSTHVPWTFGGGTKLEIK [chain 1 Y32F M34F] | 0.00561 | 0.862
chain 1 EVKLDETGGGLVQPGRPMKLSCVASGFTFSVYWMCWVRQSPEKGLEWVAQIRNKPYNYETYYSDSVKGRFTISRDDSKSSVYLQMNNLRVEDMGIYYCTGSYYGMDYWGQGTSVTVS chain 2 DVVMTQTPLSLPVSLGDQASISCRSSQSLVHSNGNTYLRWYLQKPGQSPKVLIYKVSNRFSGVPDRFSGSGSGTDFTLKISRVEAEDLGVYFCSQSTHVPWTFGGGTKLEIK [chain 1 D31V N35C] | ≥ 10 | 0.424
chain 1 EVKLDETGGGLVQPGRPMKLSCVASGFNFSIRWMNWVRQSPEKGLEWVAQIRNKPYNYETYYSDSVKGRFTISRDDSKSSVYLQMNNLRVEDMGIYYCTGSYYGMDYWGQGTSVTVS chain 2 DVVMTQTPLSLPVSLGDQASISCRSSQSLVHSNGNTYLRWYLQKPGQSPKVLIYKVSNRFSGVPDRFSGSGSGTDFTLKISRVEAEDLGVYFCSQSTHVPWTFGGGTKLEIK [chain 1 T28N D31I Y32R] | ≥ 10 | 0.627
chain 1 EVKLDETGGGLVQPGRPMKLSCVASGFTFSDYWMNPYRQSPEKGLEWVAQIRNKPYNYETYYSDSVKGRFTISRDDSKSSVYLQMNNLRVEDMGIYYCTGSYYGMDYWGQGTSVTVS chain 2 DVVMTQTPLSLPVSLGDQASISCRSSQSLVHSNGNTYLRWYLQKPGQSPKVLIYKVSNRFSGVPDRFSGSGSGTDFTLKISRVEAEDLGVYFCSQSTHVPWTFGGGTKLEIK [chain 1 W36P V37Y] | ≥ 10 | 0.75
chain 1 EVKLDETGGGLVQPGRPMKLSCVASGFTFSDYWMNWVRQSPEKGLEWVAQIRNKPYNYETYYSDSVKGRFTISRDDSKSSVYLQMNNLRVEDMGIYYCTHSYQGMDYWAQGTSVTVS chain 2 DVVMTQTPLSLPVSLGDQASISCRSSQSLVHSNGNTYLRWYLQKPGQSPKVLIYKVSNRFSGVPDRFSGSGSGTDFTLKISRVEAEDLGVYFCSQSTHVPWTFGGGTKLEIK [chain 1 G100H Y103Q G109A] | ≥ 10 | 0.293
chain 1 EVKLDETGGGLVQPGRPMKLSCVASGFTFSDYWMNWVRQSPEKGLEWVAQIRNKPYNYETYYSDSVKGRFTISRDDSKSSVYLQMNNLRVEDMGIYYCTGSKYGMDYSGQGTSVTVS chain 2 DVVMTQTPLSLPVSLGDQASISCRSSQSLVHSNGNTYLRWYLQKPGQSPKVLIYKVSNRFSGVPDRFSGSGSGTDFTLKISRVEAEDLGVYFCSQSTHVPWTFGGGTKLEIK [chain 1 Y102K W108S] | ≥ 10 | 0.534
chain 1 EVKLDETGGGLVQPGRPMKLSCVASGFTFSDYWGNAVRQSPEKGLEWVAQIRNKPYNYETYYSDSVKGRFTISRDDSKSSVYLQMNNLRVEDMGIYYCTGSYYGMDYWGQGTSVTVS chain 2 DVVMTQTPLSLPVSLGDQASISCRSSQSLVHSNGNTYLRWYLQKPGQSPKVLIYKVSNRFSGVPDRFSGSGSGTDFTLKISRVEAEDLGVYFCSQSTHVPWTFGGGTKLEIK [chain 1 M34G W36A] | ≥ 10 | 1.01
chain 1 EVKLDETGGGLVQPGRPMKLSCVASGFTPSDYWMNAVRQSPEKGLEWVAQIRNKPYNYETYYSDSVKGRFTISRDDSKSSVYLQMNNLRVEDMGIYYCTGSYYGMDYWGQGTSVTVS chain 2 DVVMTQTPLSLPVSLGDQASISCRSSQSLVHSNGNTYLRWYLQKPGQSPKVLIYKVSNRFSGVPDRFSGSGSGTDFTLKISRVEAEDLGVYFCSQSTHVPWTFGGGTKLEIK [chain 1 F29P W36A] | ≥ 10 | 0.456
chain 1 EVKLDETGGGLVQPGRPMKLSCVASGFTFSDYWPDWVRQSPEKGLEWVAQIRNKPYNYETYYSDSVKGRFTISRDDSKSSVYLQMNNLRVEDMGIYYCTGSYYGMDYWGQGTSVTVS chain 2 DVVMTQTPLSLPVSLGDQASISCRSSQSLVHSNGNTYLRWYLQKPGQSPKVLIYKVSNRFSGVPDRFSGSGSGTDFTLKISRVEAEDLGVYFCSQSTHVPWTFGGGTKLEIK [chain 1 M34P N35D] | ≥ 10 | 0.873
chain 1 EVKLDETGGGLVQPGRPMKLSCVASGFCFSSYWMNWVRQSPEKGLEWVAQIRNKPYNYETYYSDSVKGRFTISRDDSKSSVYLQMNNLRVEDMGIYYCTGSYYGMDYWGQGTSVTVS chain 2 DVVMTQTPLSLPVSLGDQASISCRSSQSLVHSNGNTYLRWYLQKPGQSPKVLIYKVSNRFSGVPDRFSGSGSGTDFTLKISRVEAEDLGVYFCSQSTHVPWTFGGGTKLEIK [chain 1 T28C D31S] | 0.00638 | 0.694
chain 1 EVKLDETGGGLVQPGRPMKLSCVASGFTFFDYWCNWVRQSPEKGLEWVAQIRNKPYNYETYYSDSVKGRFTISRDDSKSSVYLQMNNLRVEDMGIYYCTGSYYGMDYWGQGTSVTVS chain 2 DVVMTQTPLSLPVSLGDQASISCRSSQSLVHSNGNTYLRWYLQKPGQSPKVLIYKVSNRFSGVPDRFSGSGSGTDFTLKISRVEAEDLGVYFCSQSTHVPWTFGGGTKLEIK [chain 1 S30F M34C] | 4.14 | 0.514
